Laboratory results from publication PMC10397247.
Each block holds one binder with its values, some of them ahead of it.

How the values were obtained:
4H3497-bA = molecular target: T1, 4H3497-bA; experiment: two-hybrid library CCNG1;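 note: natural log of median RNA to DNA barcode read ratio; higher means stronger binding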
T1 chain: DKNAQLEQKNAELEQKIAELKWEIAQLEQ

4H3613-bA = molecular target: T2, 4H3613-bA; experiment: two-hybrid library CCNG1;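 note: natural log of median RNA to DNA barcode read ratio; higher means stronger binding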
T2 chain: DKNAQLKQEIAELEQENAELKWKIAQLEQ

4H3628-bA = molecular target: T3, 4H3628-bA; experiment: two-hybrid library CCNG1;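 note: natural log of median RNA to DNA barcode read ratio; higher means stronger binding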
T3 chain: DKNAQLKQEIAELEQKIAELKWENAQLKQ

4H3926-bA = molecular target: T4, 4H3926-bA; experiment: two-hybrid library CCNG1;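 note: natural log of median RNA to DNA barcode read ratio; higher means stronger binding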
T4 chain: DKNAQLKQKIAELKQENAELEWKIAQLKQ

4H591-bA = molecular target: T5, 4H591-bA; experiment: two-hybrid library CCNG1;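 note: natural log of median RNA to DNA barcode read ratio; higher means stronger binding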
T5 chain: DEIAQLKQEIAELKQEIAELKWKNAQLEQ

4H626-bA = molecular target: T6, 4H626-bA; experiment: two-hybrid library CCNG1;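 note: natural log of median RNA to DNA barcode read ratio; higher means stronger binding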
T6 chain: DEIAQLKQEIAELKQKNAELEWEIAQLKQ

4H906-bA = molecular target: T7, 4H906-bA; experiment: two-hybrid library CCNG1
T7 chain: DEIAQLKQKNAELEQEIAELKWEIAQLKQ

O8 = molecular target: T8, O8; experiment: two-hybrid library CC0; settings: mean of both orientations
T8 chain: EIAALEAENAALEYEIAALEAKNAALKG

O9 = molecular target: T9, O9; experiment: two-hybrid library CC0; settings: mean of both orientations
T9 chain: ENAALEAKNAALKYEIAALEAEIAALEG

O7-bA = molecular target: T10, O7-bA; experiment: two-hybrid library CCNG1
T10 chain: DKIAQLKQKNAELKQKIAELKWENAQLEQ

O8-bA = molecular target: T11, O8-bA; experiment: two-hybrid library CCNG1
T11 chain: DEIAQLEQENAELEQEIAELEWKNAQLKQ

O9-bA = molecular target: T12, O9-bA; experiment: two-hybrid library CCNG1
T12 chain: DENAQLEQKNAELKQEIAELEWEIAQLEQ

APC3323-AA = molecular target: T13, APC3323-AA; experiment: two-hybrid library CCmax
T13 chain: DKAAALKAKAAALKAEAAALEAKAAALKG

APC3354-AA = molecular target: T14, APC3354-AA; experiment: two-hybrid library CCmax; settings: mean of both orientations
T14 chain: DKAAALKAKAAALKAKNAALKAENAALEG

APC3881-AA = molecular target: T15, APC3881-AA; experiment: two-hybrid library CCmax; settings: mean of both orientations
T15 chain: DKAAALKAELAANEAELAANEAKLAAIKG

APC4100-AA = molecular target: T16, APC4100-AA; experiment: two-hybrid library CCmax; settings: mean of both orientations
T16 chain: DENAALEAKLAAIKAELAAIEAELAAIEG

APC4336-AA = molecular target: T17, APC4336-AA; experiment: two-hybrid library CCmax; settings: mean of both orientations
T17 chain: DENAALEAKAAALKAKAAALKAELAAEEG

APC5009-AA = molecular target: T18, APC5009-AA; experiment: two-hybrid library CCmax; settings: mean of both orientations
T18 chain: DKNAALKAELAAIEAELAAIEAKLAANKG

APC542-AA = molecular target: T19, APC542-AA; experiment: two-hybrid library CCmax; settings: mean of both orientations
T19 chain: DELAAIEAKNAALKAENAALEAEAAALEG

APC5531-AA = molecular target: T20, APC5531-AA; experiment: two-hybrid library CCmax; settings: mean of both orientations
T20 chain: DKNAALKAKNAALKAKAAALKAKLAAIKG

APC6088-AA = molecular target: T21, APC6088-AA; experiment: two-hybrid library CCmax; settings: mean of both orientations
T21 chain: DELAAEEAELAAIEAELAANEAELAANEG

APC7524-AA = molecular target: T22, APC7524-AA; experiment: two-hybrid library CCmax; settings: mean of both orientations
T22 chain: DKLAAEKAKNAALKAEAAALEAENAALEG

APC8401-AA = molecular target: T23, APC8401-AA; experiment: two-hybrid library CCmax; settings: mean of both orientations
T23 chain: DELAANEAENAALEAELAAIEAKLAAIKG

APC8516-AA = molecular target: T24, APC8516-AA; experiment: two-hybrid library CCmax; settings: mean of both orientations
T24 chain: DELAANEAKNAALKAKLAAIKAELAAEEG

APC9141-AA = molecular target: T25, APC9141-AA; experiment: two-hybrid library CCmax; settings: mean of both orientations
T25 chain: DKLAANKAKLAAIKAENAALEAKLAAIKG

APC9182-AA = molecular target: T26, APC9182-AA; experiment: two-hybrid library CCmax; settings: mean of both orientations
T26 chain: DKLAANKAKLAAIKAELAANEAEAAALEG

APC9291-AA = molecular target: T27, APC9291-AA; experiment: two-hybrid library CCmax; settings: mean of both orientations
T27 chain: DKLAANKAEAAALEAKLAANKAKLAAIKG

APC9806-AA = molecular target: T28, APC9806-AA; experiment: two-hybrid library CCmax; settings: mean of both orientations
T28 chain: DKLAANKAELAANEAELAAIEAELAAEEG

Binder: DKNAQLEQKNAELEQKIAELKWEIAQLEQ [4H3497-bA]
interaction score (4H3497-bA): -0.278 | interaction score (4H3613-bA): -1.15 | interaction score (4H3628-bA): -0.547 | interaction score (4H3926-bA): -1.24 | interaction score (4H591-bA): -1.08 | interaction score (4H626-bA): -1.45 | interaction score (4H906-bA): -1.2

Binder: EIAALEAENAALEYEIAALEAKNAALKG [O8]
interaction score (O8): -2.62 | interaction score (O9): -2.53

Next, values leading:

interaction score (O7-bA): -1.12 | interaction score (O8-bA): 2.08 | interaction score (O9-bA): -0.962
Binder: DKIAQLKQKNAELKQKIAELKWENAQLEQ [O7-bA]

interaction score (APC3323-AA): 0.173 | interaction score (APC3354-AA): -1.64 | interaction score (APC3881-AA): -1.64 | interaction score (APC4100-AA): 1.59 | interaction score (APC4336-AA): -2.27 | interaction score (APC5009-AA): -1.38 | interaction score (APC542-AA): -1.45 | interaction score (APC5531-AA): -1.7 | interaction score (APC6088-AA): -1.65 | interaction score (APC7524-AA): -1.5 | interaction score (APC8401-AA): -1.35 | interaction score (APC8516-AA): -1.75 | interaction score (APC9141-AA): -2.12 | interaction score (APC9182-AA): -1.64 | interaction score (APC9291-AA): -1.84 | interaction score (APC9806-AA): -1.66
Binder: DKAAALKAKAAALKAEAAALEAKAAALKG [APC3323-AA]
